# Source: the nanobody polyreactivity screen of Harvey et al. (2022)
# Assay: yeast display, Sf9 membrane polyspecificity reagent, FACS + sequencing; frameworks hold sequencing errors
# In short: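 After 36–48 hours of galactose induction, yeast (Saccharomyces cerevisiae BJ5465) displaying a synthetic nanobody library were stained at 4 °C for 1 hour with 10% biotinylated, detergent-solubilized Sf9 membrane reagent. Streptavidin microbeads enriched the stained cells before FACS sorting into low and high (top ~1%) gates on anti-HA and streptavidin fluorescence. Each clone's polyreactivity label reflects its gate of origin.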
row,Sequence,polyreactivity (PSR sort gate)
1,QVQLVESGGGLVQAGGSLRLSCAASGSIFYRNAMGWYRQAPGKERELVAAISRSGGSTYYADSVKGRFTISRDNAKNTVYLQMNSLKPEDTAVYYCAKARPLGGTPSNGFDYWGQGTQVTVSS,high polyreactivity
2,QVQLVESGGGLVQAGGSLRLSCAASGSIFYRNAMGWYRQAPGKERELVAAITRSDGRTYYADSVKGRFTISRDNAKNTVYLQMNSLKPEDTAVYYCNADHPFPQYEGGSWGQGTQVTVSS,low polyreactivity
3,QVQLVESGGGLVQAGGSLRLSCAASGSIFYRNRMGWYRQAPGKERELVAAIRYSGDNTYYADSVKGRFTISRDNAKNTVYLQMNSLKPEDTAVYYCAADFPDYEYWGQGTQVTVSS,high polyreactivity
4,QVQLVESGGGLVQAGGSLRLSCAASGSIFYRNTMGWYRQAPGKERELVAAITYSGGSTYYADSVKGRFTISRDNAKNTVYLQMNSLKPEDTAVYYCAVTDFYSYLLRYDSWGQGTQVTVSS,low polyreactivity
5,QVQLVESGGGLVQAGGSLRLSCAASGSIFYRNTMGWYRQAPGKERELVASINTGTGTYYADSVKGRFTISRDNAKNTVYLQMNSLKPEDTAVYYCNSKGWVWPFPSYYPYDSWGQGTQVTVSS,high polyreactivity
6,QVQLVESGGGLVQAGGSLRLSCAASGSIFYRNTMGWYRQATGKERELVARISNGGSTNYADSVKGRFTISRDNAKNTVYLQMNSLKPEDTAVYYCNARRGSATHSVTARRGYWGQGTQVTVSS,high polyreactivity
7,QVQLVESGGGLVQAGGSLRLSCAASGSIFYRYAMGWSRQAPGKERELVAYISSGVSTNYADSVKGRFTISRDNAKKTVYLQMNSLKPEDTAVYYCAVRHSYTRAYWGRDFWGQGTQVTVSS,low polyreactivity
8,QVQLVESGGGLVQAGGSLRLSCAASGSIFYRYAMGWYREAPGKERELVAAISSSGGSTYYADSVKGRFTISRDNAKNTVYSQMNSLKPEDTAVYYCNTDRYYTYDYWGQGTQVTVSS,low polyreactivity
9,QVQLVESGGGLVQAGGSLRLSCAASGSIFYRYAMGWYRQAPGKERELVAAITQSTDSTYYADSVKGRFTISRDNAKNTVYLQMNSLKPEDSAVYYCDAYLVYYRPYAYGYWGQGTQVTVSS,low polyreactivity
10,QVQLVESGGGLVQAGGSLRLSCAASGSIFYRYARGWYRQAPGKERELVAAISYNGGRTYYADSVKGRFTISRDNAKNTVYLQMNSLKPEDTAVYYCNAAGRDDAYDYWGQGTQVTVSS,high polyreactivity
11,QVQLVESGGGLVQAGGSLRLSCAASGSIFYRYTMGWSRQAPGKERELVAAITYSGGSTYYADSVKGRFTISRDNAKNTVYLQMNSLIPEDTAVYYCNKDYYSGQSGYNYWGQGTQVTVSS,low polyreactivity
12,QVQLVESGGGLVQAGGSLRLSCAASGSIFYRYTMGWYRQAPVTERELVAVISRRGGSTYYADSVKGRFTISRDNEKNTVYLQMNRLKPEDTAVYYCAVPQYRTSVRQGNTLWDDYWGQGTQVTVSS,high polyreactivity
13,QVQLVESGGGLVQAGGSLRLSCAASGSIFYRYTMGWYRQARGKERELVAAISSDGGSTYYADSVKGRFTISRDNAKKTVYLQMNSLKPEDTAVYYCAAGQDGHSDWGQGTQVTVSS,low polyreactivity
14,QVQLVESGGGLVQAGGSLRLSCAASGSIFYSNAMGWSRPAPGKEWELVAGITWTGGSTYYADSVKGRFTISRDNAKNTVYLQMNSLKPEYTEVYYCADRVYYRTVLGGYYYWGQGTQVTVSS,low polyreactivity
15,QVQLVESGGGLVQAGGSLRLSCAASGSIFYSNAMGWYRQAPGKEREFVAAISAGGGSTYYADSVKGRFTISRDHSKNTVYFQMNSLKPEDTAVYYCAKGPLPRAGVKFDYWGQGTQVTVSS,low polyreactivity
16,QVQLVESGGGLVQAGGSLRLSCAASGSIFYSNAMGWYRQAPGKERELVAAISVSGVSTYYADSVKGRFTISRDNAKNTVYLQMNSLKPEDTAVYYCAADTGYRYDDYYWWGGEYDYWGQGTQVTVSS,low polyreactivity
17,QVQLVESGGGLVQAGGSLRLSCAASGSIFYSYAMGRYRQAPGKERELVAAITKSSGSTYYADSVKGRFTISRDNAKNTVYLQMNSLKPEDTAVYYCAATRYRPVRLYYWGQGTQVTVSS,high polyreactivity
18,QVQLVESGGGLVQAGGSLRLSCAASGSIFYSYAMGWYRQAPGKEREFVAAISWSASRTYYADSVKGRFTISRDNAKNTVYLQMNSLKPADTAVYDCAARTYYNRGYYYWGQGTQVTVSS,high polyreactivity
19,QVQLVESGGGLVQAGGSLRLSCAASGSIFYSYAMGWYRQAPGKERELVADITSSGGSTYYADSVKGRFTISRDNAKNTVYFQMNSLKPEDTAVYYCAASSPAFYGMRYNYWGHGTQVTVSS,low polyreactivity
20,QVQLVESGGGLVQAGGSLRLSCAASGSIFYTNAMGWYRQAPGKERELFASISRRGGSTYYADSVKGRFTISRDNAKNTVYLQMNSLKPEDTAVYYFATDGYTPYRWLWWLMDYWGQGTQVTVSS,high polyreactivity
21,QVQLVESGGGLVQAGGSLRLSCAASGSIFYTNAMGWYRQAPGKERELVAAIRWSGGRTYYADSVKGRFTISRDNAKNSVYLQMNSLKPEDTAVYYCNKVPRTPIPYKYGYWGQGTQVTVSS,high polyreactivity
22,QVQLVESGGGLVQAGGSLRLSCAASGSIFYTNAMGWYRQAPGKERELVASIRTGGSTNYADSVKGRFTISRDNAKNTVYLQMNSLKPEDTAVYYCNADDPDYHGSIDDLDYDYWGQGTQVTVSS,low polyreactivity
23,QVQLVESGGGLVQAGGSLRLSCAASGSIFYTYAMGWYRQAPGKERELVAAISWSDTTTYYAVSVKGRFTISRDSAKNTVYLQMNSLKPEDTAVYYFAADAYTNSYWYDYWGQGTQVTLSS,high polyreactivity
24,QVQLVESGGGLVQAGGSLRLSCAASGSIFYTYAMGWYRQAPGKERELVAAITYRVGSTYYADSVKGRFTISRDNAKNTVYLQMNSLKPEDTAVYYCNADKGGHVRHYDYWGQGTQVTVSS,low polyreactivity
25,QVQLVESGGGLVQAGGSLRLSCAASGSIFYTYAMGWYRQAPGKERELVADISSRGGSTYYADSVKGRFTISRDNAKNTVYLQMNSLKPEDTAVYYCNAPQGFVWRYSSWGPYDYWGQGTQVTVSS,high polyreactivity
26,QVQLVESGGGLVQAGGSLRLSCAASGSIFYTYVMGWYRQAPGKERELVAAISGTGGRTYYADSVKGRFTISRDNAKNTVYLQMTSLKPEDTAVYYCATRAYHKGFYRITYYYWGQGTQVTVSS,high polyreactivity
27,QVQLVESGGGLVQAGGSLRLSCAASGSIFYVNAMGWYRQAPGKEREFVADITWSSGGRTYYADSVKGRFTISRDNAKNTVYLQMNSLKPDDTAVYYCAAPRYYYYSYDYWGQGTQVTVSS,high polyreactivity
28,QVQLVESGGGLVQAGGSLRLSCAASGSIFYVNAMGWYRQAPGKESELVAAISFSGGTTYYADSVKGRFTISRDNAKNTVYLQMNSLKPEDTAVYYCNTPSSREMDYWGQGTQVTVSS,low polyreactivity
29,QVQLVESGGGLVQAGGSLRLSCAASGSIFYVNTMGWYRQAPGKEREFVAAISGSGGSTRYADSVKGRFTISRDNAKNTVYLQMNSLKPEDTAVYYCAADRYTYIWYHIYDYWGQGTQVTVSS,low polyreactivity
30,QVQLVESGGGLVQAGGSLRLSCAASGSIFYVNTMGWYRQAPGKERELVAGITSRGGSTYYADSVKGRFTISRDNAKNTVYLQMNSLKPEDTAVYYCAKRAYGTALYRGYGYWGQGTQVTVSS,low polyreactivity
